B1: 克隆号为3A7C12的抗体 (antibody, V domains shown)
VH: EVQLVESGGGLVKPGGSLRLSCAASGFTFSSYSMNWVRQAPGKGLEWVSSISSGSSYIYFADSVKGRFTISRDNAKNSLFLQMNSLRAEDTATYYCARAPLGYDSSGYFTMYYFDYWGQGTLVTVSS
VL: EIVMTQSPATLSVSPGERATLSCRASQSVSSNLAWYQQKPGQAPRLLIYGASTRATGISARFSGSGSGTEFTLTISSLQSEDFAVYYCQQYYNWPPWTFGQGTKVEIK
notes: also called 3A7C12克隆号抗体
B2: 克隆号为3C6E1的抗体 (antibody, V domains shown)
VH: EVQLVESGGGLIQPGGSLGLSCAASGFTVSSNYMSWVRQAPGRGLEWVSVIYGGGSTTYADSVKGRFTISRDNSKNTLNLQMNSLRAEDTAVYYCARGGRFLHVFDIWGQGTVVTVSS
VL: QSALTQPASVSGSPGQSITISCTGTSSDIGGYNYVSWYQQHPGKAPKLMIYDVTKRPSGVSNRFSGSKSGNTASLTISGLQAEDEADYHCSSYTSSSTRWVFGGGTKLTVL
B3: 克隆号为1B12G6的抗体 (antibody, V domains shown)
VH: QVQLVQSGAEVKKPGSSVKVSCKASGGTFSSYTISWVRQAPGQGLEWLGRIIPILNIANYAQKFQGRVTITADKSTSTAYMELSSLRSEDTAVYYCARDGRASGLGATHYFDYWGQGTLVTVSS
VL: QSVLTQPPSVSGAPGQRVTISCTGSSSNIGAGYNVHWYQQLPGTAPKLLIYGNSNRPSGVPDRFSGSKSGTSASLAITGLQAEDEADYYCQSYDSSLSGSVFGGGTKLTVL
B4: 克隆号为9A5C5的抗体 (antibody, V domains shown)
VH: EVQLQQSGPELVKPGASVKISCKTSGYTFTEYTMHWVKQSHGKSLEWIGGINPNNGGTTYNQKFKGKATLTVDKSSSTAYMELRSLTSEDSAVYYCARDGYSFFDYWGQGTTLTVSS
VL: DIVLTQSPASLAVSLGQRATISCRASKSVSTSGYSYMHWYQQKPGQPPKLLIYLASNLESGVPARFSGSGSGTDFTLNIHPVEEEDAATYYCQHSRELFTFGSGTKLEIK

Assays:
[1] = target: 新型冠状病毒Omicron突变株Spike RBD蛋白 (新型冠状病毒Omicron突变株 (SARS-CoV-2 Omicron …, UniProt P0DTC2 319-537))
[2] = target: T1, 新型冠状病毒Beta突变株Spike RBD蛋白 (新型冠状病毒Beta突变株 (SARS-CoV-2 Beta variant), UniProt P0DTC2 319-537); test: ELISA binding experiment (Fig. 3)
T1 construct: domain: Spike RBD; also called Beta SPIKE RBD蛋白

[3] = target: T2, 新型冠状病毒Delta突变株Spike RBD蛋白 (新型冠状病毒Delta突变株 (SARS-CoV-2 Delta …, UniProt P0DTC2 319-537)); test: ELISA binding experiment (Fig. 3)
T2 construct: domain: Spike RBD; also called Delta SPIKE RBD蛋白

[4] = target: T3, 新型冠状病毒Alpha突变株Spike RBD蛋白 (新型冠状病毒Alpha突变株 (SARS-CoV-2 Alpha …, UniProt P0DTC2 319-537)); test: ELISA binding experiment (Fig. 3)
T3 construct: domain: Spike RBD; also called Alpha SPIKE RBD蛋白

[5] = target: T4, 新型冠状病毒Gamma突变株Spike RBD蛋白 (新型冠状病毒Gamma突变株 (SARS-CoV-2 Gamma …, UniProt P0DTC2 319-537)); test: ELISA binding experiment (Fig. 3)
T4 construct: domain: Spike RBD; also called Gamma SPIKE RBD蛋白

[6] = target: T1, 新型冠状病毒Beta突变株Spike RBD蛋白; test: indirect ELISA, RBD coated at 2 μg/mL
[7] = target: T2, 新型冠状病毒Delta突变株Spike RBD蛋白; test: indirect ELISA, RBD coated at 2 μg/mL
[8] = target: T3, 新型冠状病毒Alpha突变株Spike RBD蛋白; test: indirect ELISA, RBD coated at 2 μg/mL
[9] = target: T4, 新型冠状病毒Gamma突变株Spike RBD蛋白; test: indirect ELISA, RBD coated at 2 μg/mL

Binder | Kd [1] [nM] | binding result [2] | binding result [3] | binding result [4] | binding result [5] | binding result [6] | binding result [7] | binding result [8] | binding result [9]
B1 | 9.07 | no binding | no binding | no binding | no binding |  |  |  | 
B2 |  |  |  |  |  | no binding (tested: 1 μg/mL) | no binding (tested: 1 μg/mL) | no binding (tested: 1 μg/mL) | no binding (tested: 1 μg/mL)
B3 |  |  |  |  |  | no binding (tested: 1 μg/mL) | no binding (tested: 1 μg/mL) | no binding (tested: 1 μg/mL) | no binding (tested: 1 μg/mL)
B4 |  |  |  |  |  | no binding (tested: 1 μg/mL) | no binding (tested: 1 μg/mL) | no binding (tested: 1 μg/mL) | no binding (tested: 1 μg/mL)

From patent CN114702578A (BAISI MEDICAL DIAGNOSTICS TECH BEIJING CO LTD, dated 2022)
